Measurements published in patent publication CN116930475A.

Legend:
[1] = biological target: 2339-CAR (CD8信号肽-2339(anti-MSLN)-CD8hinge-CD28TM-CD28IC-CD3z), expressed on T cells of MSLN_CAR-T products (batch BZDS202101001 for patient S0106; same sequence for S0304); experiment: flow cytometry, PE-mesothelin staining of S0106 CAR-T product, no serum
[2] = biological target: 1444-CAR (CD8信号肽-(anti-MSLN)-CD8 hinge-CD28 TM-CD28IC-CD3z), expressed on the T cells of patient S0105's MSLN_CAR-T product, batch BZDS202012001; experiment: flow cytometry, PE-mesothelin staining of S0105 CAR-T product, no serum
[3] = biological target: 2339-CAR (CD8信号肽-2339(anti-MSLN)-CD8hinge-CD28TM-CD28IC-CD3z), expressed on T cells of MSLN_CAR-T products (batch BZDS202101001 for patient S0106; same sequence for S0304); experiment: flow cytometry, PE-mesothelin staining of CAR-T product (table for S0304), no serum

Sequence of 2339-CAR (CD8信号肽-2339(anti-MSLN)-CD8hinge-CD28TM-CD28IC-CD3z), expressed on T cells of MSLN_CAR-T products (batch BZDS202101001 for patient S0106; same sequence for S0304) (chain, as listed by the source limits assumed): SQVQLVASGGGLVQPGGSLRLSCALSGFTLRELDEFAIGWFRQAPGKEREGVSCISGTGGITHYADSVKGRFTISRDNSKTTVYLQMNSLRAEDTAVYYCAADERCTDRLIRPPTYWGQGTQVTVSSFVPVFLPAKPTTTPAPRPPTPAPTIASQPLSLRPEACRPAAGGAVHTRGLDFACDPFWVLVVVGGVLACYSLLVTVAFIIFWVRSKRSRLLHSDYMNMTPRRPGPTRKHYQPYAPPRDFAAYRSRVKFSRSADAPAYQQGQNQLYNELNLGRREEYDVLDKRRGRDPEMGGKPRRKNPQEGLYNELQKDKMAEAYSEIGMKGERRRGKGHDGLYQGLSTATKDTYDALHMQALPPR
Sequence of 1444-CAR (CD8信号肽-(anti-MSLN)-CD8 hinge-CD28 TM-CD28IC-CD3z), expressed on the T cells of patient S0105's MSLN_CAR-T product, batch BZDS202012001 (chain, as listed by the source): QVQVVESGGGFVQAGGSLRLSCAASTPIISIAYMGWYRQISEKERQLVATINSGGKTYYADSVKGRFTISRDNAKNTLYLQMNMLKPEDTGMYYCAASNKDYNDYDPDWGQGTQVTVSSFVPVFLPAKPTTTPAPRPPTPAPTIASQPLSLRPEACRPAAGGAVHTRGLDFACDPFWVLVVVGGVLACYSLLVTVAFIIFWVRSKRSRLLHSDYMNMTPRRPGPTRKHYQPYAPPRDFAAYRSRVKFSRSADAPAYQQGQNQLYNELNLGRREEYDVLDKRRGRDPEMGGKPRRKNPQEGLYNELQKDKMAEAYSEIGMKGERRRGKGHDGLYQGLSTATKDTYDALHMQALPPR

PE荧光标记的间皮素 (PE-labelled mesothelin, MSLN) (from UniProt Q13421 296-580) (ligand)
阳性率 (percent of T cells stained by labelled mesothelin) [1]: 96.8% | 阳性率 (percent of T cells stained by labelled mesothelin) [2]: 32.7% | 阳性率 (percent of T cells stained by labelled mesothelin) [3]: 96.8%
